Measurements from PMC8750359.

B1: NKCC2: N442Q/N452Q (protein)
parent chain: MSVSIPSNSVPSSASRFQVHVINEGHGSAAAVGDSADPPHYEETSFGDEAQNRLRISFRPGNQECYDNFLQTGETAKTDTTFHAYDSHTNTYYLQTFGHNTMDAVPKIEYYRNTGSVSGPKVNRPSLLEIHEQLAKNVTVAPGSADRVANGDGMPGDEQAENKEEDMTGVVKFGWVKGVLVRCMLNIWGVMLFIRLSWIVGEAGIGLGVLIILLSTMVTSITGLSTSAIATNGFVRGGGAYYLISRSLGPEFGGSIGLIFAFANAVAVAMYVVGFAETVVDLLKESDSMMVDPTNDIRIIGSITVVILLGISVAGMEWEAKAQVILLVILLIAIANFFIGTVIPSNNEKKSRGFFNYQASIFAENFGPSFTKGEGFFSVFAIFFPAATGILAGANISGDLEDPQDAIPRGTMLAIFITTVAYIGVAICVAACVVRDATGSMNDTIVSGMNCNGSAACGLGYDFSRCQHEPCQYGLMNNFQVMSMVSGFGPLITAGIFSATLSSALASLVSAPKVFQALCKDNIFKGLQFFAKGYGKNNEPLRGYFLTFVIAMAFILIAELNVIAPIISNFFLASYALINFSCFHASYAKSPGWRPAYGIYNMWVSLFGAILCCAVMFVINWWAAVITYVIELFLYIYVTYKKPDVNWGSSTQALSYVSALDNALELTTVEDHVKNFRPQCIVLTGGPMTRPALLDITHAFTKNSGLCICCEVFVGPRKLCVKEMNSGMAKKQAWLIKNKIKAFYAAVAADCFRDGVRSLLQASGLGRMKPNTLVIGYKKNWRKAPLSELENYVGIIHDAFDFEIGVVIVRISQGFDISPVLQVQDELEKLEQERLALEAAIKDNECEEGKGGIRGLFKKAGKLNITKPAPKKDGNISSIQSMHVGEFNQKLVEASAQFKKKQGKGTIDVWWLFDDGGLTLLIPYILTLRKKWKDCKLRIYVGGKITRIEEEKISMASLLSKFRIKFADIHIIGDINIKPNKESWKVFEEMIEPYRLHESHKDLTTAEKLKRESPWKITDAELEAVKEKSYRQVRLNELLQEHSRAANLIVLSLPVARKGSISDLLYMAWLEILTKNLPPVLLVRGNHKNVLTFYS
B2: NKCC2: kifunensine 25 µM, 6 h (protein)
parent chain: B1 parent chain

Columns and labels:
[1] = immunoblot of total NKCC2 ± ManIA co-expression, HEK cells; settings: glycan lost; control: WT NKCC2
[2] = immunoblot of NKCC2 ± ManIA co-expression, OKP cells; settings: glycan changed form; control: untreated cells

| Protein | other: ManIA-induced down-regulation of NKCC2 protein [1] | other: ManIA-induced down-regulation of NKCC2 protein [2] |
| --- | --- | --- |
| B1 | decreases | – |
| B2 | – | decreases |
